Assays:
[1] = target: T1, mouse transferrin receptor extracellular domain (position 87 to position 763 of SEQ ID NO: 39) (mouse, UniProt Q62351 87-763); assay: ELISA: mouse TfR extracellular domain coated on the plate, detected with anti-hI2S monoclonal antibody and HRP-labeled secondary antibody
T1 construct: Coated on the ELISA plate at 10 ug/mL; also called mouse TfR; mTfR
Procedure: The binding activities of the obtained three types of proteins, mscFv-GS3-hI2S, mscFv2-GS3-hI2S, and hI2S-mscFv2, to the mouse TfR receptor were measured by the ELISA method. The ELISA method was generally performed in the following manner. To each well of a 96-well microtiter plate (Nunc), 100 μL of a mouse transferrin receptor extracellular domain having an amino acid sequence from position 87 to position 763 of an amino acid sequence represented by SEQ ID NO: 39 diluted with 0.05 M bicarbonate buffer (pH 9.6) to a concentration of 10 μg/mL was added, and the plate was allowed to stand at room temperature for at least 1 hour to adsorb the antibody to the plate. Then, 300 μL of TBS containing 1% BSA and 0.05% Tween20 was added to each well, and the plate was allowed to stand at room temperature for 1 hour. Each well was washed three times with TBS containing 0.05% Tween20 (TBS-T), followed by dilution with TBS containing 0.1% BSA and 0.05% Tween20 to 300, 100, 33.33, 11.11, 3.70, 1.23, 0.41, or 0.14 nM for mscFv-GS3-hI2S, 600, 200, 66.67, 22.22, 7.41, 2.47, 0.82, or 0.27 nM for mscFv2-GS3-hI2S, and 1200, 400, 133.33, 44.44, 14.81, 4.94, 1.65, or 0.55 nM for hI2S-mscFv2, and 100 μL of each thereof was added to each well. The plate was allowed to stand at room temperature for at least 1 hour. After the plate was washed three times with TBS-T, anti-hI2S monoclonal antibodies were diluted to 0.5 μg/mL with TBS containing 0.1% BSA and 0.05% Tween20, 100 μL thereof was added to each well, and the plate was allowed to stand at room temperature for at least 1 hour. The plate was washed three times with the TBS-T, then 100 μL of an HRP-labeled anti-human IgG polyclonal antibody (Bethyl) solution diluted to 50 ng/mL with TBS containing 0.1% BSA and 0.05% Tween20 was added to each well, and the plate was allowed to stand at room temperature for at least 1 hour. […] Then, 100 μL of a stop solution (1 N hydrochloride) was added to each well, and the absorbance at 450 nm for each well was measured using a plate reader (SpectraMax iD3, MOLECULAR DEVICES).

[2] = target: T1, mouse transferrin receptor …; assay: ELISA: mouse TfR extracellular domain coated on the plate, detected with anti-I2S monoclonal antibody and HRP-labeled secondary antibody
Procedure: The recombinant proteins of mscFv3-GS3-hI2S obtained by an ordinary method using CHO cells were measured for their binding activity to mouse transferrin receptor by the ELISA method. The ELISA method was generally performed in the following manner. To each well of a 96-well microtiter plate (Nunc), 100 μL of a mouse transferrin receptor extracellular domain having an amino acid sequence from position 87 to position 763 of an amino acid sequence represented by SEQ ID NO: 39 diluted with 0.05 M bicarbonate buffer (pH 9.6) to a concentration of 10 μg/mL was added, and the plate was allowed to stand at room temperature for at least 1 hour to adsorb the antibody to the plate. Then, 300 μL of TBS containing 1% BSA and 0.05% Tween20 was added to each well, and the plate was allowed to stand at room temperature for 1 hour. Each well was washed three times with TBS containing 0.05% Tween20 (TBS-T). Then, a solution containing mscFv3-GS3-hI2S was diluted using TBS containing 0.1% BSA and 0.05% Tween20 to a concentration of mscFv3-GS3-hI2S of 200, 66.7, 22.2, 7.41, 2.47, 0.82, and 0.27 nM, and 100 μL of the diluted solution was added to each well. The plate was allowed to stand at room temperature for at least 1 hour. […] Then, 100 μL of a stop solution (1 N hydrochloride) was added to each well, and the absorbance at 450 nm for each well was measured using a plate reader (MOLECULAR DEVICES).

T1 sequence (Q62351 87-763): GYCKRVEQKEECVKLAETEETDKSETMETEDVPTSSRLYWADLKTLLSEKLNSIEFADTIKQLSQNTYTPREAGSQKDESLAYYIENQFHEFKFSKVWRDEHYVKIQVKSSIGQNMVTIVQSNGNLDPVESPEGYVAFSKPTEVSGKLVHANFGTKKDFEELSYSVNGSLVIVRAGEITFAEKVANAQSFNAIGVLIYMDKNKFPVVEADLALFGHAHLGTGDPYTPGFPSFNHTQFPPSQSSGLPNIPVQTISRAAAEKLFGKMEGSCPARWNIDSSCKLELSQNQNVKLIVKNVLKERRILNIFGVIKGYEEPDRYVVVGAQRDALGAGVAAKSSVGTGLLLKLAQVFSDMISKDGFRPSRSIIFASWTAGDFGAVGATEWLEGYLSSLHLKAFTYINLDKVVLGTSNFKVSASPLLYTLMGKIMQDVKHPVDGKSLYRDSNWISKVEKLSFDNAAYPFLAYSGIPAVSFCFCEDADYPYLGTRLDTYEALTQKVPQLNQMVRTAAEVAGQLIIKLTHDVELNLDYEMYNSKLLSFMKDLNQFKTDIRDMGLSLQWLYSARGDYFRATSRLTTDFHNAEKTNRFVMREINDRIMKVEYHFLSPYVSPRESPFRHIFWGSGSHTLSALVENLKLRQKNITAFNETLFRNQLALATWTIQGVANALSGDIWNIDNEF

| EC50 [1] [nM] | EC50 [2] [nM] | Binder |
| --- | --- | --- |
| 96.7 |  | hI2S-mscFv2 (conjugate in which mouse anti-mTfRscFv antibody 2 is bound to the C-terminus of hI2S) (scFv, Enzyme-scFv fusion, recombinant from CHO cells) SETQANSTTDALNVLLIIVDDLRPSLGCYGDKLVRSPNIDQLASHSLLFQNAFAQQAVCAPSRVSFLTGRRPDTTRLYDFNSYWRVHAGNFSTIPQYFKENGYVTMSVGKVFHPGISSNHTDDSPYSWSFPPYHPSSEKYENTKTCRGPDGELHANLLCPVDVLDVPEGTLPDKQSTEQAIQLLEKMKTSASPFFLAVGYHKPHIPFRYPKEFQKLYPLENITLAPDPEVPDGLPPVAYNPWMDIRQREDVQALNISVPYGPIPVDFQRKIRQSYFASVSYLDTQVGRLLSALDDLQLANSTIIAFTSDHGWALGEHGEWAKYSNFDVATHVPLIFYVPGRTASLPEAGEKLFPYLDPFDSASQLMEPGRQSMDLVELVSLFPTLAGLAGLQVPPRCPVPSFHVELCREGKNLLKHFRFRDLEEDPYLPGNPRELIAYSQYPRPSDIPQWNSDKPSLKDIKIMGYSIRTIDYRYTVWVGFNPDEFLANFSDIHAGELYFVDSDPLQDHNMYNDSQGGDLFQLLMPEVQLVESGGGLVQPGNSLTLSCVASGFTFSNYGMHWIRQAPKKGLEWIAMIAYDSSKMNYADTVKGRFTISRDNSKNTLYLEMNSLRSEDTAMYYCAVPTAHYVVDVWGQGVSVTVSSGGGGSGGGGSGGGGSDIQMTQSPASLSASLEEIVTITCQASQDIGNWLAWYQQKPGKSPQLLIAGATSLADGVPSRFSGSRSGTQFSLKISRVQVEDIGIYYCLQAANTPWTFGGGTKLELKR |
|  | 4.4 | mscFv3-GS3-hI2S (conjugate in which hI2S is bound to the C-terminus of mouse anti-mouse transferrin receptor single chain antibody mscFv 3 via the linker of … (scFv, scFv-enzyme fusion, recombinant from CHO cells; also called mscFv 3-hI2S conjugate) EVQLVESGGGLVQPGNSLTLSCVASGFTFSNYGMHWIRQAPKKGLEWIAMIAYDSSKMNYADTVKGRFTISRDNSKNTLYLEMNSLRSEDTAMYYCAVPTAHYVVDVWGQGVSVTVSSGGGGSGGGGSGGGGSDIQMTQSPASLSASLEEIVTITCQASQDIGNWLAWYQQKPGKSPQLLIYGATSLADGVPSRFSGSRSGTQFSLKISRVQVEDIGIYYCLQAYNTPWTFGGGTKLELKRGGGGSGGGGSGGGGSSETQANSTTDALNVLLIIVDDLRPSLGCYGDKLVRSPNIDQLASHSLLFQNAFAQQAVCAPSRVSFLTGRRPDTTRLYDFNSYWRVHAGNFSTIPQYFKENGYVTMSVGKVFHPGISSNHTDDSPYSWSFPPYHPSSEKYENTKTCRGPDGELHANLLCPVDVLDVPEGTLPDKQSTEQAIQLLEKMKTSASPFFLAVGYHKPHIPFRYPKEFQKLYPLENITLAPDPEVPDGLPPVAYNPWMDIRQREDVQALNISVPYGPIPVDFQRKIRQSYFASVSYLDTQVGRLLSALDDLQLANSTIIAFTSDHGWALGEHGEWAKYSNFDVATHVPLIFYVPGRTASLPEAGEKLFPYLDPFDSASQLMEPGRQSMDLVELVSLFPTLAGLAGLQVPPRCPVPSFHVELCREGKNLLKHFRFRDLEEDPYLPGNPRELIAYSQYPRPSDIPQWNSDKPSLKDIKIMGYSIRTIDYRYTVWVGFNPDEFLANFSDIHAGELYFVDSDPLQDHNMYNDSQGGDLFQLLMP |
| 13.2 |  | mscFv2-GS3-hI2S (conjugate in which hI2S is bound to the C-terminus of mouse anti-mTfRscFv antibody 2 via the linker of SEQ ID NO: 4) (scFv, scFv-enzyme fusion, recombinant from CHO cells; also called mouse anti-mTfRscFv antibody 2-hI2S conjugate) EVQLVESGGGLVQPGNSLTLSCVASGFTFSNYGMHWIRQAPKKGLEWIAMIAYDSSKMNYADTVKGRFTISRDNSKNTLYLEMNSLRSEDTAMYYCAVPTAHYVVDVWGQGVSVTVSSGGGGSGGGGSGGGGSDIQMTQSPASLSASLEEIVTITCQASQDIGNWLAWYQQKPGKSPQLLIAGATSLADGVPSRFSGSRSGTQFSLKISRVQVEDIGIYYCLQAANTPWTFGGGTKLELKRGGGGSGGGGSGGGGSSETQANSTTDALNVLLIIVDDLRPSLGCYGDKLVRSPNIDQLASHSLLFQNAFAQQAVCAPSRVSFLTGRRPDTTRLYDFNSYWRVHAGNFSTIPQYFKENGYVTMSVGKVFHPGISSNHTDDSPYSWSFPPYHPSSEKYENTKTCRGPDGELHANLLCPVDVLDVPEGTLPDKQSTEQAIQLLEKMKTSASPFFLAVGYHKPHIPFRYPKEFQKLYPLENITLAPDPEVPDGLPPVAYNPWMDIRQREDVQALNISVPYGPIPVDFQRKIRQSYFASVSYLDTQVGRLLSALDDLQLANSTIIAFTSDHGWALGEHGEWAKYSNFDVATHVPLIFYVPGRTASLPEAGEKLFPYLDPFDSASQLMEPGRQSMDLVELVSLFPTLAGLAGLQVPPRCPVPSFHVELCREGKNLLKHFRFRDLEEDPYLPGNPRELIAYSQYPRPSDIPQWNSDKPSLKDIKIMGYSIRTIDYRYTVWVGFNPDEFLANFSDIHAGELYFVDSDPLQDHNMYNDSQGGDLFQLLMP |
| 2.4 |  | mscFv-GS3-hI2S (conjugate in which human iduronate-2-sulfatase is bound to the C-terminus of a mouse anti-mouse transferrin receptor single chain antibody via … (scFv, scFv-enzyme fusion, expressed as a recombinant protein in CHO cells and collected from the culture supernatant; also called mouse anti-mTfRscFv antibody-hI2S conjugate) EVQLVESGGGLVQPGNSLTLSCVASGFTFSNYGMHWIRQAPKKGLEWIAMIYYDSSKMNYADTVKGRFTISRDNSKNTLYLEMNSLRSEDTAMYYCAVPTSHYVVDVWGQGVSVTVSSGGGGSGGGGSGGGGSDIQMTQSPASLSASLEEIVTITCQASQDIGNWLAWYQQKPGKSPQLLIYGATSLADGVPSRFSGSRSGTQFSLKISRVQVEDIGIYYCLQAYNTPWTFGGGTKLELKRGGGGSGGGGSGGGGSSETQANSTTDALNVLLIIVDDLRPSLGCYGDKLVRSPNIDQLASHSLLFQNAFAQQAVCAPSRVSFLTGRRPDTTRLYDFNSYWRVHAGNFSTIPQYFKENGYVTMSVGKVFHPGISSNHTDDSPYSWSFPPYHPSSEKYENTKTCRGPDGELHANLLCPVDVLDVPEGTLPDKQSTEQAIQLLEKMKTSASPFFLAVGYHKPHIPFRYPKEFQKLYPLENITLAPDPEVPDGLPPVAYNPWMDIRQREDVQALNISVPYGPIPVDFQRKIRQSYFASVSYLDTQVGRLLSALDDLQLANSTIIAFTSDHGWALGEHGEWAKYSNFDVATHVPLIFYVPGRTASLPEAGEKLFPYLDPFDSASQLMEPGRQSMDLVELVSLFPTLAGLAGLQVPPRCPVPSFHVELCREGKNLLKHFRFRDLEEDPYLPGNPRELIAYSQYPRPSDIPQWNSDKPSLKDIKIMGYSIRTIDYRYTVWVGFNPDEFLANFSDIHAGELYFVDSDPLQDHNMYNDSQGGDLFQLLMP |

Source: US20250059292A1 (JCR PHARMACEUTICALS, published 2025)
